# Test results: patent US20150376265A1 (Genentech, published 2015)
# T1: Complex I with gH W168C, on virions of HB1 - mutant viruses 2 and 5 (HCMV, UniProt P12824 24-743; P16832 31-278; P16837 28-171; F5HCP3 26-214; F5HET4 19-129)
# T1 chain 1: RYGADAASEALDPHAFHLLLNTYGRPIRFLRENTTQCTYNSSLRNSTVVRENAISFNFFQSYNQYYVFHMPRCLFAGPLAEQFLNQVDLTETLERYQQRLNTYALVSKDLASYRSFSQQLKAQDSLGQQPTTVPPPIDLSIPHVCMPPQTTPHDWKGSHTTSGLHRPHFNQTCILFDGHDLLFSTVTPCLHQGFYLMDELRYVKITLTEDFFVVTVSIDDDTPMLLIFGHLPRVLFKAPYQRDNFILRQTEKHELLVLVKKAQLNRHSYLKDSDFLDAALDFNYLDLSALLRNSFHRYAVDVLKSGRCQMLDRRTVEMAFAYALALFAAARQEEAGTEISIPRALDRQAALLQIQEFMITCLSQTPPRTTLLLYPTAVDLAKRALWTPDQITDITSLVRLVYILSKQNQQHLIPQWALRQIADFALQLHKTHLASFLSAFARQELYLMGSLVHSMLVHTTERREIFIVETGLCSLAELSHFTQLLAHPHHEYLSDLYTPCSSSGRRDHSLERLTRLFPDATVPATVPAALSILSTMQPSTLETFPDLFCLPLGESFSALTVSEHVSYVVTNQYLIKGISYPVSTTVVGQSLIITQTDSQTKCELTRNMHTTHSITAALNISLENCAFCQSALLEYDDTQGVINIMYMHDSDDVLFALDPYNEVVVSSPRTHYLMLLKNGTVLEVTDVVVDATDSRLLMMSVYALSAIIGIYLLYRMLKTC
# T1 chain 2: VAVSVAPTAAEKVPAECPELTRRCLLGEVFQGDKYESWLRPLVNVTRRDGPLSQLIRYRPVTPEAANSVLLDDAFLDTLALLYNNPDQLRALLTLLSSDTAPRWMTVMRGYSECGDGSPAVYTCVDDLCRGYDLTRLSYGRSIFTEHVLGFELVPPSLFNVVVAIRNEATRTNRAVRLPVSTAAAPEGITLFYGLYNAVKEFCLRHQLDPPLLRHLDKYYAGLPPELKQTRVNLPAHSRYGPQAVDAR
# T1 chain 3: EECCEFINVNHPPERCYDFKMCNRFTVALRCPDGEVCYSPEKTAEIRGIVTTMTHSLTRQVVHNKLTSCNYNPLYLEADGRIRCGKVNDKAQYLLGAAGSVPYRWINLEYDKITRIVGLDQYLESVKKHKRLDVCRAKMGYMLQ
# T1 chain 4: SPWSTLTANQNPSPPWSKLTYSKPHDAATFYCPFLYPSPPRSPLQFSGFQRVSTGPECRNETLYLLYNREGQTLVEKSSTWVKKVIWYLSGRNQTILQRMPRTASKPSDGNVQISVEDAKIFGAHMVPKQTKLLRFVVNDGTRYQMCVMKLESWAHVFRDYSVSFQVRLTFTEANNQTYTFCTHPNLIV
# T1 chain 5: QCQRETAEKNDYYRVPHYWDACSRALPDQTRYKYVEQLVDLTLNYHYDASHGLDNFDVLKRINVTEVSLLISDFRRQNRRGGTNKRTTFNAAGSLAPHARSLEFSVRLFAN
# T2: Complex I with gH P171S, on virions of HB1 - mutant virus 3 (HCMV, UniProt P12824 24-743; P16832 31-278; P16837 28-171; F5HCP3 26-214; F5HET4 19-129)
# T2 chain 1: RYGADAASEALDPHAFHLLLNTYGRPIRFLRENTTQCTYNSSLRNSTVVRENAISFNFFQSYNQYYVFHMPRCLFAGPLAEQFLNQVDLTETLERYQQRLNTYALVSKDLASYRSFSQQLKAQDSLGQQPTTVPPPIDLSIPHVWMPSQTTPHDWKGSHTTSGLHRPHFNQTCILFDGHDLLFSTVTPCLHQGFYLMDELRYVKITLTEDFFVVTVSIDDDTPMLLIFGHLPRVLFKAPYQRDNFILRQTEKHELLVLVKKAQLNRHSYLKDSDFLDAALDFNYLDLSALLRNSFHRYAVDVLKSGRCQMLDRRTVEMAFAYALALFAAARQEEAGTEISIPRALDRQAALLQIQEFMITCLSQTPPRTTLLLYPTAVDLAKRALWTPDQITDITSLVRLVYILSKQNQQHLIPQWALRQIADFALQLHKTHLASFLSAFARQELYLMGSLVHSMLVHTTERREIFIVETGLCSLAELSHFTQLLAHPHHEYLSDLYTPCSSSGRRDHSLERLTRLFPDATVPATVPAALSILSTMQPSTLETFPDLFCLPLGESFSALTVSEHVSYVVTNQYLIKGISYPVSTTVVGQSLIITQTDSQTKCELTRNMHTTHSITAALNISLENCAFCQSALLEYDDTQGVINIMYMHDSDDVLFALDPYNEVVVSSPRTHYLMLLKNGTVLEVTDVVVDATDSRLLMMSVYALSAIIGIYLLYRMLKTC
# T2 chain 2: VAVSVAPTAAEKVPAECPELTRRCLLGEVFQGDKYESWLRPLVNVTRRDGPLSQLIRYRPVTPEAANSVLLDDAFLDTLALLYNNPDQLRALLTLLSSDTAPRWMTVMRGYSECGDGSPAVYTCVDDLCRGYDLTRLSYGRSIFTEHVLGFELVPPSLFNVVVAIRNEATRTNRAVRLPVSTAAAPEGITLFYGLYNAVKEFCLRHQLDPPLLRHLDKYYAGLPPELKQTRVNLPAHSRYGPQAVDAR
# T2 chain 3: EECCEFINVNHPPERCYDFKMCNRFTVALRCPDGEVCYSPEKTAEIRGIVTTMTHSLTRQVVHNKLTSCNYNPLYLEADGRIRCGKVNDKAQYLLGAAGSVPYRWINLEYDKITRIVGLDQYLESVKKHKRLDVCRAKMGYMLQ
# T2 chain 4: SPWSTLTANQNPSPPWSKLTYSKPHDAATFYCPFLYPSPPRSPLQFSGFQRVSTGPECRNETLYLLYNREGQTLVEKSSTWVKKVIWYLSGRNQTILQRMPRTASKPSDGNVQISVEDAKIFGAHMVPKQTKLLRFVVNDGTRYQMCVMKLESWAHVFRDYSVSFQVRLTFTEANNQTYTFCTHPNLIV
# T2 chain 5: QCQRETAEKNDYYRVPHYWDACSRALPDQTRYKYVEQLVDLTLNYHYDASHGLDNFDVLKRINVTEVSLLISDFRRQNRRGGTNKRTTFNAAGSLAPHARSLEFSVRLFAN
# Key:
# [1] = molecular target: T1, Complex I with gH W168C, on virions of …; test: cell-based or functional assay
# [2] = molecular target: T2, Complex I with gH P171S, on virions of …; test: cell-based or functional assay
# [3] = molecular target: T3, gH/gL, full-length, on the surface of transfected HEK-293T cells (HCMV, UniProt P12824 24-743; P16832 31-278); test: FACS on transfected HEK-293T cells
# T3 construct: also called cells expressing gH/gL alone; cell-surface expressed gH/gL
binder,measurement,setting,value
"hu8G8 (lambda4 8G8 graft and hu8G8.VH1) (antibody, V domains shown, also called hu8G8 with VH1; Humanized 8G8 with VH1) VH: EVQLVQSGAEVKKPGASVKVSCKASGYTFTNYGMNWVRQAPGQGLEWIGWINTYTGEPTYADDFKGRVTITRDTSTSTAYLELSSLRSEDTAVYYCARSWYYVSNYWYFDVWGQGTLVTVSS VL: SVLTQSPSASASLGASVKLTCTLSSQHSTYTIEWYQQQPGKGPRYLMKLKKDGSHSTGDGIPDRFSGSSSGADRYLTISNLQSEDEADYYCGVGDTIKEQFVYVFGGGTKLTVLG","hu8G8 EC50, neutralisation of HB1 - mutant virus 2, Data Set 1",[1],8 ng/mL
same,"hu8G8 EC50, neutralisation of HB1 - mutant virus 2, Data Set 2",[1],6 ng/mL
same,"hu8G8 EC50, neutralisation of HB1 - mutant virus 5, Data Set 2",[1],1 ng/mL
same,"hu8G8 EC50, neutralisation of HB1 - mutant virus 3, Data Set 1",[2],1 ng/mL
same,"hu8G8 EC50, neutralisation of HB1 - mutant virus 3, Data Set 2",[2],0.1 ng/mL
same,binding result,[3],no binding (tested: saturating primary antibody)
